Reference: patent publication US20170158755A1 (PROTHENA BIOSCIENCES, published 2017)

What was measured:
[1] = molecular target: T1, LGde3, human LAMA4 G domain with LG3 deleted, displayed on 293 cells (human, UniProt Q16363 830-1821, limits assumed); experiment: flow cytometry, 650-labeled MCAM-Fc on 293 cells displaying the variant
T1 construct: pDisplay construct on 293 cells; vector tags and anchor not written here; also called LGde3 (LG12); LGde3 (LG23)
T1 sequence: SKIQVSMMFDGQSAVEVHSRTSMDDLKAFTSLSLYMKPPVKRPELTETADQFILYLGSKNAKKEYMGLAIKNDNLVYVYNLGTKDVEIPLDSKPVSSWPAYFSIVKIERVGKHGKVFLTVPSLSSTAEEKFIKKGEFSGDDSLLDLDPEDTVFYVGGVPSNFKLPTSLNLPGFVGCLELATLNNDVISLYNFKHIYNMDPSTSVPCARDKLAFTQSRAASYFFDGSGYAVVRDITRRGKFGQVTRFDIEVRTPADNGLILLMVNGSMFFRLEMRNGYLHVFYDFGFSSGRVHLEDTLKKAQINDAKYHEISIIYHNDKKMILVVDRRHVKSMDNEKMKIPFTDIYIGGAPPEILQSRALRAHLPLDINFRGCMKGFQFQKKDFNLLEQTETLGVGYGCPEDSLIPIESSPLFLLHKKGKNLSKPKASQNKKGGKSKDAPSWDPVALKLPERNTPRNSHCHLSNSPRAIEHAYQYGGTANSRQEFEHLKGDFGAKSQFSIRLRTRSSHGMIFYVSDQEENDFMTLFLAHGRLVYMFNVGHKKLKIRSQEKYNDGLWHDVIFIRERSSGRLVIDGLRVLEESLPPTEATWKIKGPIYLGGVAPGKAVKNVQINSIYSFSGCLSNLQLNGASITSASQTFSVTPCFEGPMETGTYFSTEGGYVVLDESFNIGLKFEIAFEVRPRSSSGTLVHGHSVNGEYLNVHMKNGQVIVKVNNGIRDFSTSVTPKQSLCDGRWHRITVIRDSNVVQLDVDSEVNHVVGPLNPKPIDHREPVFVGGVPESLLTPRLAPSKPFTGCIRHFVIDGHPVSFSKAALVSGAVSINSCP
Excerpt: (§1) LGde1 has a full-length G domain (i.e., LG1-5) with LG1 deleted, LGde2 has a full-length G domain with LG2 deleted, and LGde3 has a full-length G domain with LG3 deleted. Recombinant MCAM-Fc protein was able to specifically bind 293 cells expressing LAMA4 variants LG1-5, LG1-3, and LGde 1 (LG23), but not 293 cells expressing LAMA 4 variants LG4-5, LGde2 (LG13), or LGde3 (LG12).

[2] = molecular target: T2, LGde1, human LAMA4 G domain with LG1 deleted, displayed on 293 cells (human, UniProt Q16363 1036-1821); experiment: as above
T2 construct: pDisplay construct on 293 cells; vector tags and anchor not written here; also called LGde 1 (LG23)
T2 sequence: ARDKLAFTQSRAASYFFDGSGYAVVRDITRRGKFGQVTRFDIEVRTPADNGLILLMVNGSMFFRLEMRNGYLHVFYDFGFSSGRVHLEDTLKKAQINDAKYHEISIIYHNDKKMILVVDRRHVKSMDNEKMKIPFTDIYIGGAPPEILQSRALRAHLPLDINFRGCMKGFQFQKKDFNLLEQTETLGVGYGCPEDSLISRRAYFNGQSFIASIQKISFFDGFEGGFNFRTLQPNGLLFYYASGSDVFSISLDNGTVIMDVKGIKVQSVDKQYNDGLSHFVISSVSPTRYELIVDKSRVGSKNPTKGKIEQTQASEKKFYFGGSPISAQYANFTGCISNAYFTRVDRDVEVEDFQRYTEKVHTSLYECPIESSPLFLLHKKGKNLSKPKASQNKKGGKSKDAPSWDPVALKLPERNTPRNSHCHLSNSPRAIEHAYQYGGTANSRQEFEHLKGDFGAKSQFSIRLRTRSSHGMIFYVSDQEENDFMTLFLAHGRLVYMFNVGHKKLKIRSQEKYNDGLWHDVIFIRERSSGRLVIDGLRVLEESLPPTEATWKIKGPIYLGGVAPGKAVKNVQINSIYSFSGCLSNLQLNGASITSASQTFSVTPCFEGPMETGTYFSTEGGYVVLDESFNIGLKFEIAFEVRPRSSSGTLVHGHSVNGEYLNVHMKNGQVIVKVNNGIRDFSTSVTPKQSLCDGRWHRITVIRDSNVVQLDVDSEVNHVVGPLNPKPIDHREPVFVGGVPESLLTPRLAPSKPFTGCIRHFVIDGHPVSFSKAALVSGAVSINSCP
Excerpt: as §1

B1: mouse MCAM-Fc fusion protein (Fc fusion, UniProt Q8R2Y2 24-563, looked up)
chain: VPGEEKQPVPTPDLVEAEVGSTALLKCGPSRASGNFSQVDWFLIHKERQILIFRVHQGKGQREPGEYEHRLSLQDSVATLALSHVTPHDERMFLCKSKRPRLQDHYVELQVFKAPEEPTIQANVVGIHVDRQELREVATCVGRNGYPIPQVLWYKNSLPLQEEENRVHIQSSQIVESSGLYTLKSVLSARLVKEDKDAQFYCELSYRLPSGNHMKESKEVTVPVFYPAEKVWVEVEPVGLLKEGDHVTIRCLTDGNPQPHFTINKKDPSTGEMEEESTDENGLLSLEPAEKHHSGLYQCQSLDLETTITLSSDPLELLVNYVSDVQVNPTAPEVQEGESLTLTCEAESNQDLEFEWLRDKTGQLLGKGPVLQLNNVRREAGGRYLCMASVPRVPGLNRTQLVSVGIFGSPWMALKERKVWVQENAVLNLSCEASGHPQPTISWNVNGSATEWNPDPQTVVSTLNVLVTPELLETGAECTASNSLGSNTTTIVLKLVTLTTLIPDSSQTTGLSTLTVSPHTRANSTSTEKKLPQPESKGVV
notes: extracellular domain; Made in house; also called mMCAM-Fc; 650-conjugated mouse MCAM-Fc; not shown: human IgG1 (Fc part of the fusion)
B1: no binding [1]; binds [2].
